Like-named read-outs stand apart in the source and are kept apart here.
How the values were obtained:
[1] = target: tissue factor (TF) antigen (UniProt P13726); assay: SPR; against wild-type D3H44 Fab; * estimated from the same Fab with another L chain tag
[2] = target: tissue factor (TF) antigen (UniProt P13726); assay: SPR (ProteOn), Fab captured on anti-penta His, TF as analyte, 1:1 fit; * estimated from the same Fab with another L chain tag
[3] = target: D3H44 light chain Q124E_Q160E_T180E; assay: SMCA: four chains co-expressed in CHO-3E7, protein A, LC-MS; competing light chain m18
[4] = target: D3H44 light chain Q124R_Q160K_T178R; assay: SMCA: H1, H2, L1, L2 co-expressed in CHO-3E7, protein A, LC-MS; competitor light chain m28
[5] = target: D3H44 Fab heavy chain L124E_L143D_K145T (H1 of LCCA sets 9214, 9217, 9216, 9219, 9220, 9225, 9228, 9229)
[6] = target: D3H44 Fab heavy chain L124E_L143E_K145M (H1 of LCCA sets 9269, 9266, 9267, 9260, 9262, 9263)
[7] = target: D3H44 Fab heavy chain L124E_L143D_K145T (H1 of LCCA sets 9214, 9217, 9216, 9219, 9220, 9225, 9228, 9229); assay: LCCA: H1 co-expressed with L1 and L2 (DNA 333:250:749 ng), His-tag capture on SPR chip, light chain tags detected with anti-HA/anti-FLAG; competitor L2 Q124E_V133G_S176D_T178D_T180E
[8] = target: D3H44 Fab heavy chain L124E_L143D_K145T (H1 of LCCA sets 9214, 9217, 9216, 9219, 9220, 9225, 9228, 9229); assay: LCCA: H1 co-expressed with L1 and L2 (DNA 333:250:749 ng), His-tag capture on SPR chip, light chain tags detected with anti-HA/anti-FLAG; competitor L2 Q124E_V133G_S176D_T178E_T180E
[9] = target: D3H44 Fab heavy chain L124R_D146N_Q179K (H1 of LCCA sets 9358, 9359, 9357, 9351, 9352, 9353, 9354, 9350); assay: LCCA: H1 co-expressed with L1 and L2 (DNA 333:250:749 ng), His-tag capture on SPR chip, light chain tags detected with anti-HA/anti-FLAG; competitor L1 Q124E_V133G_S176D_T178E_T180E
[10] = target: D3H44 Fab heavy chain L124R_D146N_Q179K; assay: LCCA, L1:L2 DNA 1:3 normalised to 1:1, SPR of light chain tags; competitor m56
[11] = target: D3H44 Fab heavy chain L124E_L143E_K145M; assay: as above
[12] = target: D3H44 Fab heavy chain L124E_L143D_K145T (H1 of LCCA sets 9214, 9217, 9216, 9219, 9220, 9225, 9228, 9229); remark: listed apart in the source
[13] = target: D3H44 Fab heavy chain L124E_L143E_K145M (H1 of LCCA sets 9269, 9266, 9267, 9260, 9262, 9263); remark: listed apart in the source
[14] = target: D3H44 Fab heavy chain L124E_L143D_K145T (H1 of LCCA sets 9214, 9217, 9216, 9219, 9220, 9225, 9228, 9229); assay: LCCA: H1 co-expressed with L1 and L2 (DNA 333:250:749 ng), His-tag capture on SPR chip, light chain tags detected with anti-HA/anti-FLAG; competitor L2 V133G_S176D_T178D_T180E
[15] = target: D3H44 Fab heavy chain L124E_L143E_K145M (H1 of LCCA sets 9269, 9266, 9267, 9260, 9262, 9263); assay: as above
[16] = target: D3H44 light chain P44F_Q124R_Q160K_T178R; assay: SMCA: LC-MS of protein A purified product after co-expression of H1, H2, L1, L2 in CHO-3E7; competing light chain m46
[17] = target: D3H44 light chain Q38E_Q124E_Q160E_T180E; assay: SMCA: four chains co-expressed in CHO-3E7, protein A, LC-MS; competing light chain m28
[18] = target: D3H44 light chain Q124E_N137K_Q160E_S174R_T180E; assay: SMCA: 2 heavy + 2 light chains co-expressed, protein A, LC-MS; competing light chain m38
[19] = target: D3H44 light chain Q124E_Q160E_T180E; assay: SMCA: four chains co-expressed in CHO-3E7, protein A, LC-MS; competing light chain m24
[20] = target: D3H44 light chain Q124R_Q160K_T178R; assay: SMCA: LC-MS of protein A purified product after co-expression of H1, H2, L1, L2 in CHO-3E7; competing light chain m48
D3H44 light chain Q124R = assay: SMCA: LC-MS of protein A purified product after co-expression of H1, H2, L1, L2 in CHO-3E7; competing light chain m50
[21] = target: D3H44 light chain V133G_N137K_S174R_S176R; assay: SMCA: 2 heavy + 2 light chains co-expressed, protein A, LC-MS; competing light chain m48
[22] = target: D3H44 light chain V133G_N137K_S174R_S176R; assay: SMCA co-expression, LC-MS; competing light chain m24
[23] = target: D3H44 light chain V133G_N137K_S174R_S176R; assay: SMCA co-expression, LC-MS; competing light chain m20
[24] = target: D3H44 light chain Q38R_S131K; assay: SMCA: H1, H2, L1, L2 co-expressed in CHO-3E7, protein A, LC-MS; competitor light chain m4
[25] = target: D3H44 light chain Q124E_V133W_S176T_T178L_T180E; assay: SMCA co-expression, LC-MS; competing light chain m6
[26] = target: D3H44 light chain Q124E_V133W_S176T_T178L_T180E; assay: SMCA: 2 heavy + 2 light chains co-expressed, protein A, LC-MS; competing light chain m24
[27] = target: D3H44 light chain Q38E_Q124E_Q160E_T180E; assay: SMCA: H1, H2, L1, L2 co-expressed in CHO-3E7, protein A, LC-MS; competitor light chain m8
[28] = target: Trastuzumab light chain P44F_S131K; assay: SMCA: four chains co-expressed in CHO-3E7, protein A, LC-MS; competing light chain m16
[29] = target: D3H44 light chain Q124E_Q160E_T180E; assay: SMCA: four chains co-expressed in CHO-3E7, protein A, LC-MS; competing light chain m21
[30] = target: D3H44 light chain Q124E_Q160E_T180E; assay: SMCA: 2 heavy + 2 light chains co-expressed, protein A, LC-MS; competing light chain m4
[31] = target: D3H44 light chain Q124E_Q160E_T180E; assay: SMCA: H1, H2, L1, L2 co-expressed in CHO-3E7, protein A, LC-MS; competitor light chain m44
[32] = target: Trastuzumab light chain P44F_Q124R_Q160K_T178R; assay: SMCA: four chains co-expressed in CHO-3E7, protein A, LC-MS; competing light chain m16
[33] = target: D3H44 light chain P44F_S131K; assay: SMCA: LC-MS of protein A purified product after co-expression of H1, H2, L1, L2 in CHO-3E7; competing light chain m46
[34] = target: D3H44 light chain Q124E_Q160E_T178E; assay: SMCA: four chains co-expressed in CHO-3E7, protein A, LC-MS; competing light chain m35
[35] = target: Trastuzumab light chain Q38R_S131K; assay: SMCA: four chains co-expressed in CHO-3E7, protein A, LC-MS; competing light chain m26

In the case of “D3H44 Fab heterodimer, H1 L124E_L143E_K145T / L1 Q124K_V133G_S176R_T178K (H1L1 of LCCA sets 9308 and 9300)”, the Change in KD with respect to wild type (-(log(KD design) - log(KD wt))) [1] is reported as -0.12 and the Kd [2] is reported as 0.21 nM.
Substance “D3H44 full-length heavy chain Q179K (from UniProt P0DOX5 2-448)” has a % H1L1 Pairing (over all H1 species) [3] of 100%.
Substance “D3H44 heavy chain L143E_K145T_H172R (from UniProt P0DOX5 2-448)” has a % H1L1 Pairing (over all H1 species) [4] of 100%.
With “D3H44 light chain Q124K_V133G_S176R_T178K” the median LCCA performance normalized to a L1:L2 DNA ratio of 1:1 (ratio H1-L1:H1-L2), H1-L1 share (ratio part of 100) [5] was 84, the median LCCA performance normalized to a L1:L2 DNA ratio of 1:1 (ratio H1-L1:H1-L2), H1-L1 share (ratio part of 100) [6] was 85 and the median LCCA performance normalized to a L1:L2 DNA ratio of 1:1 (ratio H1-L1:H1-L2), H1-L1 share (ratio part of 100) [7] was 85. It also gave a median LCCA performance normalized to a L1:L2 DNA ratio of 1:1 (ratio H1-L1:H1-L2), H1-L1 share (ratio part of 100) [8] of 79, a median LCCA performance normalized to a L1:L2 DNA ratio of 1:1 (ratio H1-L1:H1-L2), H1-L2 share (ratio part of 100) [9] of 16 and an H2L2:H2L1 normalized median ratio [10] of 16%. It also gave an H1L1:H1L2 normalized median ratio [11] of 84%, an H1L1:H1L2 normalized median scalar value ln(r1/f1) [11] of 1.67 and a median LCCA performance normalized to a L1:L2 DNA ratio of 1:1 (ratio H1-L1:H1-L2), H1-L1 share (ratio part of 100) [12] of 81. It also gave a median LCCA performance normalized to a L1:L2 DNA ratio of 1:1 (ratio H1-L1:H1-L2), H1-L1 share (ratio part of 100) [13] of 88, a median LCCA performance normalized to a L1:L2 DNA ratio of 1:1 (ratio H1-L1:H1-L2), H1-L1 share (ratio part of 100) [14] of 82 and a median LCCA performance normalized to a L1:L2 DNA ratio of 1:1 (ratio H1-L1:H1-L2), H1-L1 share (ratio part of 100) [15] of 63.
Work on “D3H44 heavy chain L45P_L143E_K145T (from UniProt P0DOX5 2-448)” yielded a % H1L1 Pairing (over all H1 species) [16] of 88.1%.
In the case of “D3H44 full-length heavy chain Q39R_S186R (from UniProt P0DOX5 2-448)”, the % H1L1 Pairing (over all H1 species) [17] is reported as 100%.
“D3H44 heavy chain H172T_Q179K (from UniProt P0DOX5 2-448)” was tested, and the % H1L1 Pairing (over all H1 species) [18] was 100%.
“D3H44 full-length heavy chain H172R_S186R (from UniProt P0DOX5 2-448)” was tested, and the % H1L1 Pairing (over all H1 species) [19] was 100%.
With “D3H44 heavy chain L143E_K145T (from UniProt P0DOX5 2-448)” the % H1L1 Pairing (over all H1 species) [20] was 83.2% and the % H1L1 Pairing (over all H1 species) (D3H44 light chain Q124R) was 91.5%.
Substance “D3H44 heavy chain L124E_H172T (from UniProt P0DOX5 2-448)” has a % H1L1 Pairing (over all H1 species) [21] of 100%, a % H1L1 Pairing (over all H1 species) [22] of 50.5% and a Change in % H1L1 Pairing (over all H1 species) with respect to wild type [22] of 9.9%. The % H1L1 Pairing (over all H1 species) [23] was 100% and the Change in % H1L1 Pairing (over all H1 species) with respect to wild type [23] was 38.1%.
“D3H44 heavy chain Q39E_K145T_Q179E (from UniProt P0DOX5 2-448)” showed a % H1L1 Pairing (over all H1 species) [24] of 100%.
“D3H44 heavy chain L124A_L143F_Q179K (from UniProt P0DOX5 2-448)” showed a % H1L1 Pairing (over all H1 species) [25] of 100%, a Change in % H1L1 Pairing (over all H1 species) with respect to wild type [25] of 38.1% and a % H1L1 Pairing (over all H1 species) [26] of 100%.
“D3H44 heavy chain Q39R_S186R (from UniProt P0DOX5 2-448)” was tested, and the % H1L1 Pairing (over all H1 species) [27] was 100%.
“Trastuzumab full-length heavy chain L45P_K145T_H172R_Q179E (from UniProt P0DOX5 2-448)” showed a % H2L2 Pairing (over all H2 species) [28] of 96.3%.
Work on “D3H44 full-length heavy chain D146G_Q179K (from UniProt P0DOX5 2-448)” yielded a % H1L1 Pairing (over all H1 species) [29] of 100%.
“D3H44 heavy chain H172R_S186R (from UniProt P0DOX5 2-448)” gave a % H1L1 Pairing (over all H1 species) [30] of 100%.
“D3H44 heavy chain D146G_Q179K (from UniProt P0DOX5 2-448)” showed a % H1L1 Pairing (over all H1 species) [31] of 100%.
“Trastuzumab full-length heavy chain L45P_L143E_K145T (from UniProt P0DOX5 2-448)” gave a % H2L2 Pairing (over all H2 species) [32] of 94.8%.
In the case of “D3H44 heavy chain L45P_K145T_H172R_Q179E (from UniProt P0DOX5 2-448)”, the % H1L1 Pairing (over all H1 species) [33] is reported as 75.5%.
“D3H44 full-length heavy chain S186K (from UniProt P0DOX5 2-448)” showed a % H1L1 Pairing (over all H1 species) [34] of 98.2%.
In the case of “Trastuzumab full-length heavy chain Q39E_K145T_Q179E (from UniProt P0DOX5 2-448)”, the % H2L2 Pairing (over all H2 species) [35] is reported as 94.3%.
